Patent US20260125477A1 (BEIJING MABWORKS BIOTECH, published 2026)
Each block holds one binder with its values, some of them ahead of it.

Assays:
[1] = target: T1, recombinant human B7-H3 (4Ig) protein, with His tag (human, UniProt Q5ZPR3 29-461, limits assumed); assay: SPR (Biacore T200), antibody captured on Protein A chip, His-tagged antigen injected
T1 construct: Bought protein; also called human B7-H3 (4Ig)/B7-H3b protein
T1 sequence (looked up): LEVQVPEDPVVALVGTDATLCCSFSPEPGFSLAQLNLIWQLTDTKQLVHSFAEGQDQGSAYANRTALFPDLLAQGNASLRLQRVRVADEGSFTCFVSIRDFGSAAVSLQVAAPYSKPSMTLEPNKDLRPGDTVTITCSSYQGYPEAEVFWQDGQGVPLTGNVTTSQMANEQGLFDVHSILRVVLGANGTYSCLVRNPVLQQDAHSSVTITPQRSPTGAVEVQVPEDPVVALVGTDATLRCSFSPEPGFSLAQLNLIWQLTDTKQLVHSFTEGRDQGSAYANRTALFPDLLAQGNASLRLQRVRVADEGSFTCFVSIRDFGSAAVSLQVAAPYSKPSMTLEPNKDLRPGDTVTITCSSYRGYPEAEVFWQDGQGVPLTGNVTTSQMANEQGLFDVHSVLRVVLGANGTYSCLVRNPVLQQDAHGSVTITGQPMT
Procedure: (§1) The fully human anti-human B7-H3 antibodies were tested for their binding affinity to human B7-H3 (4Ig), human B7-H3 (2Ig), monkey B7-H3 (monkey B7-H3/CD276 protein, with His tag, Cat #: B73-C52Ha, ACROBiosystems) and mouse B7-H3 protein (mouse B7-H3/CD276 protein, with His tag, Cat #: B73-M52H4, ACROBiosystems) by surface plasmon resonance (SPR) using Biacore T200 biosensor (Biacore, US) provided with a pre-fixed Protein A sensor chip. Briefly, the anti-human B7-H3 antibodies (1 μg/mL) were injected to the Biacore T200 biosensor at 10 μL/min for 20 sec, to achieve the desired protein density (100±30 RU).
(§2) The data as generated was analyzed using Biacore Insight V2.0.1 5.12933 with the one-to-one Langmuir binding model. The association rate (kₒₙ) and dissociation rate (koff) were obtained at the same time. The affinity was calculated as the quotient of the two kinetic rate constants (KD=koff/kₒₙ).

[2] = target: T2, recombinant human B7-H3 (2Ig) protein, with His tag (human, UniProt Q5ZPR3-2 29-245, limits assumed); assay: as above
T2 construct: Bought protein; also called human B7-H3/CD276 protein
T2 sequence (looked up): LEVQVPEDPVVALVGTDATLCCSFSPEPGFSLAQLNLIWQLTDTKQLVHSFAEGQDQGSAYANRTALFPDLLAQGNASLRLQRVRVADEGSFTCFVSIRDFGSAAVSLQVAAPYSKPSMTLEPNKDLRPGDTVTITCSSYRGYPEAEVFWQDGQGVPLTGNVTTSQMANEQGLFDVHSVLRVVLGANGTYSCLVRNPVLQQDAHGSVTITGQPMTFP
Procedure: as §1, §2

[3] = target: T3, monkey B7-H3/CD276 protein, with His tag (monkey); assay: as above
T3 construct: Bought protein
Procedure: as §1, §2

[4] = target: T4, human B7-H7/HHLA2 protein, with His tag (MALS verified) (human, UniProt Q9UM44 23-344, limits assumed); assay: SPR (Biacore T200), antibody captured on Protein A chip, response at 200 nM antigen
T4 construct: Bought protein
T4 sequence (looked up): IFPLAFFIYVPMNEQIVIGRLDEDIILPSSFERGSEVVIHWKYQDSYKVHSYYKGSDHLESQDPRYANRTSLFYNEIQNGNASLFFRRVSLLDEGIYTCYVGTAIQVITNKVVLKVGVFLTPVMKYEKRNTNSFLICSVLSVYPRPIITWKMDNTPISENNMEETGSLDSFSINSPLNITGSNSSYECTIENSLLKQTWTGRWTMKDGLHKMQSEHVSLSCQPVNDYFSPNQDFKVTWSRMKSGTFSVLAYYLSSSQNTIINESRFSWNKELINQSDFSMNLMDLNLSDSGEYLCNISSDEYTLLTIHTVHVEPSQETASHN
Procedure: (§3) The anti-human B7-H3 antibodies were tested for their binding capability to B7 family proteins by SPR using Biacore T200 biosensor (Biacore, US) provided with a pre-fixed Protein A sensor chip.
(§4) The dissociation was monitored for 600 sec. The data was analyzed using Biacore 8k evaluation software version 3.0, to obtain the binding responses, and the protein concentration-binding response curves were plotted, to determine the cross-reaction of the anti-human B7-H3 antibodies to the B7 family proteins.

[5] = target: T5, mouse B7-H3/CD276 protein, with His tag (mouse, UniProt Q8VE98 29-244, limits assumed); assay: SPR (Biacore T200), antibody captured on Protein A chip
T5 construct: Bought protein
T5 sequence (looked up): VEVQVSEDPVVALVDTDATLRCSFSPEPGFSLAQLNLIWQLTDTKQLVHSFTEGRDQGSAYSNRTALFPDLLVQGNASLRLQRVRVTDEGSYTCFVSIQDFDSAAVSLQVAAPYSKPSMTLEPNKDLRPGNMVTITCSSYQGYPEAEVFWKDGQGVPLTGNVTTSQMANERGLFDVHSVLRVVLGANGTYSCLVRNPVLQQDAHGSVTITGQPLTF
Procedure: as §1, §2

[6] = target: T6, human PD-L1/B7-H1 protein, with His tag (human, UniProt Q9NZQ7 19-238); assay: as above
T6 construct: Bought protein
T6 sequence (Q9NZQ7 19-238 limits assumed): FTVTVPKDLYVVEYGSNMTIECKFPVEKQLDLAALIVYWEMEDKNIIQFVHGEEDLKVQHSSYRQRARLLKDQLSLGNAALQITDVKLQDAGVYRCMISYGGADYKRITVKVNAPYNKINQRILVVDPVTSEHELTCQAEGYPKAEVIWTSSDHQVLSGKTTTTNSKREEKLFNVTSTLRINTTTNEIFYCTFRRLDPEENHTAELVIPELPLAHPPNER
Procedure: as §3, §4

[7] = target: T7, human B7-H4 protein, with His tag (MALS verified) (human, UniProt Q7Z7D3 29-258, limits assumed); assay: as above
T7 construct: Bought protein
T7 sequence (looked up): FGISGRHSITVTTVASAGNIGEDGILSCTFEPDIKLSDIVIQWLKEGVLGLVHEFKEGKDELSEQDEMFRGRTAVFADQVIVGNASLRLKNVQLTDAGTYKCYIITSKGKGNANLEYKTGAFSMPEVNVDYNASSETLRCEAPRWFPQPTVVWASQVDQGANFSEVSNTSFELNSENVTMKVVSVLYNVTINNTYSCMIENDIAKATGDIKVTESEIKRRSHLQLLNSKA
Procedure: as §3, §4

[8] = target: T4, human B7-H7/HHLA2 protein, with His tag …; assay: as above
Procedure: as §3, §4

Kd [1]: 1.11 nM
koff [1]: 0.000239 s⁻¹
kon [1]: 216000 M⁻¹ s⁻¹
Kd [2]: 275 nM
koff [2]: 0.0203 s⁻¹
kon [2]: 73700 M⁻¹ s⁻¹
Kd [3]: 0.966 nM
koff [3]: 0.000223 s⁻¹
kon [3]: 231000 M⁻¹ s⁻¹
Response (RU) [4]: -1.3 RU
B1: Enoblituzumab (antibody, human IgG1, kappa, V domains shown)
VH: EVQLVESGGGLVQPGGSLRLSCAASGFTFSSFGMHWVRQAPGKGLEWVAYISSDSSAIYYADTVKGRFTISRDNAKNSLYLQMNSLRDEDTAVYYCGRGRENIYYGSRLDYWGQGTTVTVSS
VL: DIQLTQSPSFLSASVGDRVTITCKASQNVDTNVAWYQQKPGKAPKALIYSASYRYSGVPSRFSGSGSGTDFTLTISSLQPEDFATYYCQQYNNYPFTFGQGTKLEIKR
notes: Humanized anti-B7-H3 antibody of MacroGenics with optimised Fc, used as the positive control; also called AbEno; enoblituzumab-IgG1-Mut
binding result [5]: no binding (tested: 200 nM highest antigen concentration)

Kd [1]: 1.01 nM
koff [1]: 0.00011 s⁻¹
kon [1]: 109000 M⁻¹ s⁻¹
Kd [2]: 10.4 nM
koff [2]: 0.000422 s⁻¹
kon [2]: 40500 M⁻¹ s⁻¹
Response (RU) [4]: 1.7 RU
binding result [6]: no binding (tested: 200 nM)
binding result [7]: no binding (tested: 200 nM)
binding result [8]: no binding (tested: 200 nM)
B2: 10F5 (antibody, human IgG1, kappa, V domains shown)
VH: QVQLVQSGAEVKKPGSSVKVSCKASGGTFSSQAISWVRQAPGQGLEWMGRIIPMLGIGDYAQSFQGRVTITADKSTSTAYLEVSSLGSEDTAVYYCAREGIAALGTNYYYGMDVWGQGTAVTVSS
VL: EIVMTQSPSSVSASVGDRVTITCRASQGISRWLAWYQQKPGKAPKLLIYVASSLQSGVPSRFSGSGSGTDFTLTISSLQPEDFATYYCQQANSFPFTFGPGTKVDIRR
notes: also called Ab10F5

Kd [1]: 1.26 nM
koff [1]: 0.00031 s⁻¹
kon [1]: 247000 M⁻¹ s⁻¹
Kd [2]: 51.5 nM
koff [2]: 0.00653 s⁻¹
kon [2]: 127000 M⁻¹ s⁻¹
Kd [3]: 1.14 nM
koff [3]: 0.000295 s⁻¹
kon [3]: 258000 M⁻¹ s⁻¹
Response (RU) [4]: 1.3 RU
B3: 6B5 (antibody, human IgG1, kappa, V domains shown)
VH: QVQLVESGPGLVKPSQTLSLTCTVSDGSISSGGYYWSWIRQHPGKGLEWIGYIYYSGGTYYSPSLKSRVTISVDTSKNQFSLKLTSVTAADTAVYYCARRAGYSSSFDSWGQGILVTVSS
VL: EIVLTQSPLSLPVTPGEPASISCRSSQSLLYSNGYTYLDWYLQKPGQSPQFLIYLGFNRASGVPDRFSGSGSGTDFTLKISRVEAEDVGVYYCMQGLQTPYTFGQGTKLEIKR
notes: also called 6B5-WT; Ab6B5

Kd [1]: 1.11 nM
koff [1]: 0.000291 s⁻¹
kon [1]: 263000 M⁻¹ s⁻¹
Kd [2]: 386 nM
koff [2]: 0.0588 s⁻¹
kon [2]: 152000 M⁻¹ s⁻¹
Kd [3]: 49.5 nM
koff [3]: 0.0167 s⁻¹
kon [3]: 337000 M⁻¹ s⁻¹
Response (RU) [4]: 0.2 RU
binding result [6]: no binding (tested: 200 nM)
binding result [7]: no binding (tested: 200 nM)
binding result [8]: no binding (tested: 200 nM)
B4: 10D7 (antibody, human IgG1, kappa, V domains shown)
VH: QVQLVQSGPGLVKPSETLSLTCTVSGGSISRSSYYWGWIRQPPGKGLEWIGNIFYAGSTYYNPSLKSRVTISVDTSKNQFSLKLSSVTAADTAVYYCARRITGTTGWFDPWGQGTLVTVSS
VL: DIQLTQSPSSLSASVGDRVTITCRASQGIRNDLGWYQQKPGKAPKLLIYAASTLQSGVPSRFSGSGSGTDFTLTISSLQPEDFATYYCLQDYNYPRTFGQGTKVEIKR
notes: also called 10D7-WT; Ab10D7
binding result [5]: no binding (tested: 200 nM highest antigen concentration)
